Test results taken from US20220306765A1 (SUZHOU TRANSCENTA THERAPEUTICS, published 2022).
Residue numbers refer to the chain shown, from its start.

B1: 18B10 (antibody, V domains shown)
VH: EFQLQQSGPELEKPGASVRISCKTSGYSFTGYNMNWVKQSNGESLEWIGNIDPYYGGTSYNQKFKGKATLTVDKSSSTAYMQLKSLTSEDSAVYYCARMYHGNAFDYWGQGTTLTVSS
VL: DIVMTQSPSSLTVTAGEKVTMSCKSSQSLLNSGNLKNYLTWYQQKPGQPPKLLIYWASTRKSGVPDRFTGSGSGTDFTLTLSSVQAEDLAVYYCQNDYSYPLTFGAGTKLELK
notes: mouse hybridoma antibody; also called hybridoma antibody 18B10
B2: 59A9 (antibody, V domains shown)
VH: QITQKESGPGILQPSQTLSLTCSLSGFSLSTYFIGVGWIRQPSGKGLEWLAHIWWNDNKYYNTALKSRLTISKDTSNNQVFLKIASVDTADTATYYCARMGSGAWFTYWGQGTLVTVSA
VL: B1 VL with L35Q, K61E, L81I, S99Y, A106S, L112I
notes: mouse hybridoma antibody; also called hybridoma antibody 59A9
B3: 18B10-HbLa (antibody, human IgG1, kappa, V domains shown)
VH: QVQLVQSGAEVKKPGASVKVSCKASGYSFTGYNMNWVRQAPGQGLEWMGNIDPYYGGTSYNQKFKGRVTLTIDKSTSTVYMELSSLRSEDTAVYYCARMYHGNAFDYWGQGTTVTVSS
VL: DIVMTQSPDSLAVSLGERATINCKSSQSLLNSGNLKNYLTWYQQKPGQPPKLLIYWASTRKSGVPDRFSGSGSGTDFTLTISSLQAEDVAVYYCQNDYSYPLTFGGGTKVEIKR
notes: humanized 18B10, human IgG1 / kappa
B4: 18B10-HcLb (antibody, human IgG1, kappa, V domains shown)
VH: B3 VH with R38K, M48I
VL: B3 VL with I21M, S69T
notes: as for B3
B5: 18B10-HaLb (antibody, human IgG1, kappa, V domains shown)
VH: B3 VH with S28T, L70M
VL: B3 VL with I21M, S69T
notes: as for B3
B6: 18B10-HcLa (antibody, human IgG1, kappa, V domains shown)
VH: B3 VH with R38K, M48I
VL: B3 VL
notes: as for B3
B7: 18B10-HbLb (antibody, human IgG1, kappa, V domains shown)
VH: B3 VH
VL: B3 VL with I21M, S69T
notes: as for B3

Key:
human CLDN18.2 [1] = biological target: T1, human CLDN18.2 (human); assay: FACS, HEK293-CLDN18.2 cells
T1 construct: also called hCLDN18.2; Claudin-18 splice variant 2
Protocol: (§1) Log-phase HEK293-CLDN18.2 and NUGC4 cells were re-suspended in PBS. After 3× cell wash by using FACS washing buffer (PBS+2% FBS), 100 μl/well diluted hybridoma Abs with a range from 400 nM to 0.002 nM were added into each well for incubation at 4° C. for 30 min. Again, cells were washed 3 times by using FACS washing buffer and then incubated with 100 μl/well goat anti-mIgG-FITC (1:400 dilution) at 4° C. for another 30 min. After a final 3× wash using FACS washing buffer, cells were analyzed by flow Cytometry.

human CLDN18.1 = biological target: T2, human CLDN18.1 (human, UniProt P56856 1-261); assay: FACS, hybridoma supernatant, HEK293-CLDN18.1 cells
T2 construct: on HEK293-CLDN18.1 cells; also called Claudin-18 splice variant 1; NP_057453.1
Protocol: Log-phase CLDN18.1 expressing HEK293-CLDN18.1 cells were resuspended in PBS at a density of 10\hat{ }5/100 μl per well. After 3× cell wash by using FACS washing buffer (PBS+2% FBS), 100 μl/well hybridoma supernatant was added into each well for incubation at 4° C. for 30 min. Again, cells were washed 3 times by using FACS washing buffer and then incubated with 100 μl/well goat anti-mIgG-FITC (1:400 dilution) at 4° C. for another 30 min. After a final 3× wash using FACS washing buffer, cells were analyzed by flow Cytometry.

human CLDN18.2 [2] = biological target: T1, human CLDN18.2; assay: flow cytometry on HEK293-CLDN18.2 cells; unit taken from the concentration axis
Protocol: as §1

T2 sequence (P56856 whole entry, canonical isoform): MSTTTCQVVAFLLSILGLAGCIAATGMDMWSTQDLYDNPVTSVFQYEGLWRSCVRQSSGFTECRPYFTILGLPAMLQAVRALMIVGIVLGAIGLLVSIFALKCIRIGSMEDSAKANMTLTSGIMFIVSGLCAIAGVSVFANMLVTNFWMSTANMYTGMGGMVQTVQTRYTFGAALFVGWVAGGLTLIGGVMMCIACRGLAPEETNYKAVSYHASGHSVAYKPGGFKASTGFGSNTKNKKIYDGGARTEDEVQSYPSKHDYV

Binder | EC50 (human CLDN18.2 [1]) [µg/mL] | binding result (human CLDN18.1) | EC50 (human CLDN18.2 [2]) [µg/mL]
B1 | 0.81 | no binding | 
B2 | 0.51 | no binding | 
B3 |  |  | 1.31
B4 |  |  | 1.22
B5 |  |  | 1.27
B6 |  |  | 1.39
B7 |  |  | 1.2
